Reference: article PMC11343135

Columns and labels:
[1] = test system: SARS1-N/M (SUD-N/M) (SARS-CoV); test: zone-interference gel electrophoresis
[2] = test system: SARS2-N/M (SUD-N/M) (SARS-CoV-2 (WA1)); test: zone-interference gel electrophoresis

## BCL2 G4 quadruplex oligonucleotide
[1]
  Kd: 1.6 µM
[2]
  Kd: 4.1 µM
